B1: p21-KID-LH−3 (p21-KID with sub-domain LH shortened by three residues) (domain or fragment, human, UniProt P38936 9-84, looked up)
chain: RQNPCGSKACRRLFGPVDSEQLSRDCDALMAGCIQEAWNFDFVTETPLEGDFAWERVRGLGLPKLYLPTGPRR
B2: p21-KID-LH+3 (p21-KID with sub-domain LH lengthened by three residues) (domain or fragment, human, UniProt P38936 9-84, looked up)
chain: RQNPCGSKACRRLFGPVDSEQLSRDCDALMAGCIQEARERALRWNFDFVTETPLEGDFAWERVRGLGLPKLYLPTGPRR

Biological target: GST-Cdk1/GST-cyclin B1 complex (UniProt P06493 1-297; P14635 1-433)
Experiment: cell-based or functional assay

Sequence of GST-Cdk1/GST-cyclin B1 complex (P06493 whole entry, chain 1 of 2): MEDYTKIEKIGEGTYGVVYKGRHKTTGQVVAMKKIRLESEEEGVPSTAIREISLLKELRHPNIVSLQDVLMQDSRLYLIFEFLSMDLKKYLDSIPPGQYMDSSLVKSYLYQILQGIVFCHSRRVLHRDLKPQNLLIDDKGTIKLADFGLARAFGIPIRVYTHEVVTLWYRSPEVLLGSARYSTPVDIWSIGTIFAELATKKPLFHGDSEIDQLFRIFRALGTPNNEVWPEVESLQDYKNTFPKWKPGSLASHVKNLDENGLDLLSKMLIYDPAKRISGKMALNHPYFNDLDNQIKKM
Sequence of GST-Cdk1/GST-cyclin B1 complex (P14635 whole entry, chain 2 of 2): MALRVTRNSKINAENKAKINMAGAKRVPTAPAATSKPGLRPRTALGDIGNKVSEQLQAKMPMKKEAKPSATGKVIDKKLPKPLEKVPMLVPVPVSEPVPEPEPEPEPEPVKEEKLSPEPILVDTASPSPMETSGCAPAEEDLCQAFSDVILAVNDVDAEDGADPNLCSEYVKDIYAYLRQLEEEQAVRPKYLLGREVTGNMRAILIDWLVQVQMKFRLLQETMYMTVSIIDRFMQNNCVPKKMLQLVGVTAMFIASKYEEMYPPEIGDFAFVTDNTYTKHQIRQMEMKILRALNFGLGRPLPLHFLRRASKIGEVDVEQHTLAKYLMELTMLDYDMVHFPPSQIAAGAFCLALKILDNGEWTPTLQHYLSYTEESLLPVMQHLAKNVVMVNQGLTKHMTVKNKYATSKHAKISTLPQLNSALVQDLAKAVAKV

| Binder | IC50 of inhibition of Cdk1/cyclin B1 kinase activity in vitro (substrate Rb^C) [nM] |
| --- | --- |
| B1 | 218 |
| B2 | 71 |
